Reference: paper PMC10397247
Read-outs that look alike come from different tables or passages of the source.

T1: 4H3921-AA
T1 chain: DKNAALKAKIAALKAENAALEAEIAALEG

T2: 4H429-AA
T2 chain: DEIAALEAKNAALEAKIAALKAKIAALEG

T3: 4H906-AA
T3 chain: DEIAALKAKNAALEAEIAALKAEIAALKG

T4: 4H780-AA
T4 chain: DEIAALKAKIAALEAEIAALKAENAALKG

T5: 4H3655-AA
T5 chain: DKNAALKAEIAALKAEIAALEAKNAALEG

T6: 4H794-AA
T6 chain: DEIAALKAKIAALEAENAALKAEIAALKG

T7: 4H605-AA
T7 chain: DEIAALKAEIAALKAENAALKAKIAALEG

T8: 4H3427-AA
T8 chain: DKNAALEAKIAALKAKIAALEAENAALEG

T9: 4H342-AA
T9 chain: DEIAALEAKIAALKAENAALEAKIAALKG

T10: 4H3343-AA
T10 chain: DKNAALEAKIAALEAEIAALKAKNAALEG

T11: 4H3627-AA
T11 chain: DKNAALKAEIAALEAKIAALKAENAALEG

T12: 4H3844-AA
T12 chain: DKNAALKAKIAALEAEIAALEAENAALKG

T13: 4H881-AA
T13 chain: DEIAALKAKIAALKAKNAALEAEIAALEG

T14: 4H993-AA
T14 chain: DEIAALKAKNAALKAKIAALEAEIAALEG

T15: 4H3606-AA
T15 chain: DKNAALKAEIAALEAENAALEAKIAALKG

T16: 4H48-AA
T16 chain: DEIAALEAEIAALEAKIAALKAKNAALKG

T17: 4H566-AA
T17 chain: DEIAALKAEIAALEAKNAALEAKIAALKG

T18: 4H678-AA
T18 chain: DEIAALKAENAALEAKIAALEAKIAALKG

T19: 4H717-AA
T19 chain: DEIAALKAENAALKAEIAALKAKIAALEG

T20: 4H454-AA
T20 chain: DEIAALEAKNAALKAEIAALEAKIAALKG

T21: 4H335-AA
T21 chain: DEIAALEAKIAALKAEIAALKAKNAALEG

T22: APC9806-AA
T22 chain: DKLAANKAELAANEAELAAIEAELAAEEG

T23: 4H478-AA
T23 chain: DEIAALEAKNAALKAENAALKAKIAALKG

T24: 4H971-AA
T24 chain: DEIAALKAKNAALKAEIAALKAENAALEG

T25: 4H428-AA
T25 chain: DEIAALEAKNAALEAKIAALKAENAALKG

T26: 4H675-AA
T26 chain: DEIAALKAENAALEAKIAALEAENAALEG

T27: 4H656-AA
T27 chain: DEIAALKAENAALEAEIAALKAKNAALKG

T28: 4H497-AA
T28 chain: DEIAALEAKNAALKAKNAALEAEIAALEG

T29: 4H906-bA
T29 chain: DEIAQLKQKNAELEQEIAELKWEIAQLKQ

T30: 4H850-bA
T30 chain: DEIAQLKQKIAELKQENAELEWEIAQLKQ


Columns and labels:
4H3921-AA = molecular target: T1, 4H3921-AA; test: two-hybrid library CCmax; settings: mean of both orientations;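 further: natural log of median RNA to DNA barcode read ratio; higher means stronger binding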
4H429-AA = molecular target: T2, 4H429-AA; test: two-hybrid library CCmax; settings: mean of both orientations;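 further: natural log of median RNA to DNA barcode read ratio; higher means stronger binding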
4H906-AA = molecular target: T3, 4H906-AA; test: two-hybrid library CCmax; settings: mean of both orientations;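 further: natural log of median RNA to DNA barcode read ratio; higher means stronger binding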
4H780-AA = molecular target: T4, 4H780-AA; test: two-hybrid library CCmax; settings: mean of both orientations;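 further: natural log of median RNA to DNA barcode read ratio; higher means stronger binding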
4H3655-AA = molecular target: T5, 4H3655-AA; test: two-hybrid library CCmax; settings: mean of both orientations
4H794-AA = molecular target: T6, 4H794-AA; test: two-hybrid library CCmax; settings: mean of both orientations
4H605-AA = molecular target: T7, 4H605-AA; test: two-hybrid library CCmax; settings: mean of both orientations
4H3427-AA = molecular target: T8, 4H3427-AA; test: two-hybrid library CCmax; settings: mean of both orientations
4H342-AA = molecular target: T9, 4H342-AA; test: two-hybrid library CCmax; settings: mean of both orientations
4H3343-AA = molecular target: T10, 4H3343-AA; test: two-hybrid library CCmax
4H3627-AA = molecular target: T11, 4H3627-AA; test: two-hybrid library CCmax; settings: mean of both orientations
4H3844-AA = molecular target: T12, 4H3844-AA; test: two-hybrid library CCmax; settings: mean of both orientations
4H881-AA = molecular target: T13, 4H881-AA; test: two-hybrid library CCmax; settings: mean of both orientations
4H993-AA = molecular target: T14, 4H993-AA; test: two-hybrid library CCmax; settings: mean of both orientations
4H3606-AA = molecular target: T15, 4H3606-AA; test: two-hybrid library CCmax; settings: mean of both orientations
4H48-AA = molecular target: T16, 4H48-AA; test: two-hybrid library CCmax; settings: mean of both orientations
4H566-AA = molecular target: T17, 4H566-AA; test: two-hybrid library CCmax; settings: mean of both orientations
4H678-AA = molecular target: T18, 4H678-AA; test: two-hybrid library CCmax; settings: mean of both orientations
4H717-AA = molecular target: T19, 4H717-AA; test: two-hybrid library CCmax; settings: mean of both orientations
4H454-AA = molecular target: T20, 4H454-AA; test: two-hybrid library CCmax; settings: mean of both orientations
4H335-AA = molecular target: T21, 4H335-AA; test: two-hybrid library CCmax
APC9806-AA = molecular target: T22, APC9806-AA; test: two-hybrid library CCmax
4H478-AA = molecular target: T23, 4H478-AA; test: two-hybrid library CCmax; settings: mean of both orientations
4H971-AA = molecular target: T24, 4H971-AA; test: two-hybrid library CCmax; settings: mean of both orientations
4H428-AA = molecular target: T25, 4H428-AA; test: two-hybrid library CCmax
4H675-AA = molecular target: T26, 4H675-AA; test: two-hybrid library CCmax; settings: mean of both orientations
4H656-AA = molecular target: T27, 4H656-AA; test: two-hybrid library CCmax; settings: mean of both orientations
4H497-AA = molecular target: T28, 4H497-AA; test: two-hybrid library CCmax; settings: mean of both orientations
4H906-bA = molecular target: T29, 4H906-bA; test: two-hybrid library CCNG1
4H850-bA = molecular target: T30, 4H850-bA; test: two-hybrid library CCNG1

| interaction score (4H3921-AA) | interaction score (4H429-AA) | interaction score (4H906-AA) | interaction score (4H780-AA) | interaction score (4H3655-AA) | interaction score (4H794-AA) | interaction score (4H605-AA) | interaction score (4H3427-AA) | interaction score (4H342-AA) | interaction score (4H3627-AA) | interaction score (4H3844-AA) | interaction score (4H881-AA) | interaction score (4H993-AA) | interaction score (4H566-AA) | interaction score (4H678-AA) | interaction score (4H717-AA) | interaction score (4H454-AA) | Binder | further results |
| --- | --- | --- | --- | --- | --- | --- | --- | --- | --- | --- | --- | --- | --- | --- | --- | --- | --- | --- |
| -1.44 | -1.22 | -1.17 | -1.16 | -1.03 | -1.33 | -1.38 | -0.88 | -1.13 | -0.363 | 0.2 | -1.72 | -1.4 | -1.55 | -1.08 | -1.27 | -0.866 | DKNAALEAKIAALEAEIAALKAKNAALEG [4H3343-AA] | interaction score (4H3343-AA): 1.37; interaction score (4H3606-AA): -1.94; interaction score (4H48-AA): -0.868; interaction score (4H335-AA; mean of both orientations): 0.806 |
|  |  |  |  |  |  |  |  |  |  |  |  |  |  |  |  |  | DKLAANKAELAANEAELAAIEAELAAEEG [APC9806-AA] | interaction score (APC9806-AA): -2.12 |
| -0.804 | -0.695 | -1.22 | -0.326 | 0.662 | -1.3 | -1.51 | -0.982 | -0.154 | 1.23 | 1.22 | -1.54 | -0.48 | -1.09 | -1.15 | -1.46 | 0.512 | DEIAALEAKIAALKAEIAALKAKNAALEG [4H335-AA] | interaction score (4H335-AA): 1.81 |
|  |  |  |  |  |  |  |  |  |  |  |  |  |  |  |  |  | DEIAALEAKNAALEAKIAALKAENAALKG [4H428-AA] | interaction score (4H478-AA): -1.71; interaction score (4H971-AA): -0.222; interaction score (4H428-AA): 0.174; interaction score (4H675-AA): 0.166; interaction score (4H656-AA): -0.675; interaction score (4H497-AA): -1.47 |
|  |  |  |  |  |  |  |  |  |  |  |  |  |  |  |  |  | DEIAQLKQKIAELKQENAELEWEIAQLKQ [4H850-bA] | interaction score (4H906-bA): -1.27; interaction score (4H850-bA): 0.428 |
